In paper PMC10367076, “Mechanistic and Structural Insights into a Divergent PLP-Dependent L-Enduracididine Cyclase from a Toxic Cyanobacterium” (ACS Catalysis, 2023):

Experiments:
[1] = target: GntC N52Q (Sphaerospermopsis torques-reginae ITEP-024); experiment: SEC; analytical size exclusion chromatography of purified wild-type GntC and mutants
[2] = target: GntC S25A (Sphaerospermopsis torques-reginae ITEP-024); experiment: as above
[3] = target: GntC N52D (Sphaerospermopsis torques-reginae ITEP-024); experiment: as above
[4] = target: GntC E9A (Sphaerospermopsis torques-reginae ITEP-024); experiment: as above
[5] = target: GntC K219A (Sphaerospermopsis torques-reginae ITEP-024); experiment: as above
[6] = target: GntC T84V (Sphaerospermopsis torques-reginae ITEP-024); experiment: as above
[7] = system: N=C(N)NC[C@@H](O)C[C@H](N)C(=O)O; experiment: purified protein; conditions: KPi buffer; PLP cofactor co-purified; cyclodehydration to L-enduracididine
[8] = target: GntC T84A (Sphaerospermopsis torques-reginae ITEP-024); experiment: SEC; analytical size exclusion chromatography of purified wild-type GntC and mutants
[9] = target: GntC E9Q (Sphaerospermopsis torques-reginae ITEP-024); experiment: as above
[10] = target: Sphaerospermopsis torques-reginae ITEP-024 GntC (Sphaerospermopsis torques-reginae ITEP-024); experiment: as above
[11] = target: GntC E9D (Sphaerospermopsis torques-reginae ITEP-024); experiment: as above
[12] = target: GntC N52A (Sphaerospermopsis torques-reginae ITEP-024); experiment: as above

## GntC N52Q (enzyme)
[1]
  stoichiometry N: 2

## GntC S25A (enzyme)
[2]
  stoichiometry N: 2

## GntC N52D (enzyme)
[3]
  stoichiometry N: 2

## GntC E9A (enzyme)
[4]
  stoichiometry N: 2

## GntC K219A (enzyme)
[5]
  stoichiometry N: 2

## GntC T84V (enzyme)
[6]
  stoichiometry N: 2

## GntC (Sphaerospermopsis torques-reginae ITEP-024)
[7]
  Km: 150 ± 80 µM
  kcat: 0.0061 ± 0.008 min^–1

## GntC T84A (enzyme)
[8]
  stoichiometry N: 2

## GntC E9Q (enzyme)
[9]
  stoichiometry N: 2

## Sphaerospermopsis torques-reginae ITEP-024 GntC (enzyme)
[10]
  stoichiometry N: 2

## GntC E9D (enzyme)
[11]
  stoichiometry N: 2

## GntC N52A (enzyme)
[12]
  stoichiometry N: 2
